Results on two molecules are retold here after publication PMC2963168, “Identification, Cloning, and Characterization of L-Phenylserine Dehydrogenase from Pseudomonas syringae NK-15” (Enzyme Research, 2010).

For data set [1], the target named is L-phenylserine dehydrogenase (ORF3) from Pseudomonas syringae NK-15 (Pseudomonas syringae NK-15). Briefly: SEC; HPLC gel filtration on a TSK-GEL G3000SW column (0.75 x 60 cm) at room temperature, 0.1 M potassium phosphate buffer (pH 7.0) with 0.2 M NaCl, 0.7 ml/min; native mass 98 kDa against a subunit of 27 kDa by SDS-PAGE. A general note: In gel filtration, larger molecules generally elute earlier.

Substrate in data set [2]: NC(=O)c1ccc[n+]([C@@H]2O[C@H](COP(=O)(O)OP(=O)(O)OC[C@H]3O[C@@H](n4cnc5c(N)ncnc54)[C@H](O)[C@@H]3O)[C@@H](O)[C@H]2O)c1
Briefly: purified protein. The conditions noted are these: DL-threo-β-phenylserine as co-substrate, 0.2 M glycine-KCl-KOH pH 10.5, 30°C (standard assay), varied: cofactor. It counts as biochemical, Pseudomonas syringae.

Substrate in data set [3]: NC(C(=O)O)C(O)c1ccccc1
Briefly: purified protein. It counts as biochemical, Pseudomonas syringae. The conditions noted are these: NAD+ as co-substrate, 0.2 M glycine-KCl-KOH pH 10.5, 30°C (standard assay), racemic DL-threo substrate.

Consider “L-phenylserine dehydrogenase (ORF3) from Pseudomonas syringae NK-15 (enzyme)”, for which the stoichiometry N (as a rule, the number of molecules, sites or subunits per partner or assembly) in data set [1] is 4.

B1: L-phenylserine dehydrogenase (ORF3; L-PSDH) (Pseudomonas syringae) (protein)
chain: MSFPVCLVTGAATGIGAATALRFARDGWGVAINNFDDSTRADAERVAAQCREAGAQTLVIDADVGDDGACRRMVEQVAAQWGRIDALVNSAGTTRVIPHSDFEAIDPDEFERIYRVNLIGMFQMTRAATPLLRESFCPGHFASVLHVSSLASLYGTGLHPAYAASKGAVNSLTLSLARNLAPLVRVNAIAPGMVDDGLLRRVLGDEADGRVVESMRENAPLKRVSQPAEIAELAWFLAAHAPAMTGQVLAIENGLLLNT
notes: 98 kDa native, probably homotetramer; AB499092 is the 9,246-bp operon entry, which also holds D-phenylserine dehydrogenase (orf5)
For B1, the Km (as a rule, the substrate concentration at which the rate is half of its maximum) in data set [2] was 2.1 mM; in data set [3] it was 59 mM.
